Measured values as given in US20190060453A1 (ONCOMED PHARMACEUTICALS, published 2019).

Experiments:
[1] = biological target: T1, DLL4 antigen protein (recombinant fragment of the extracellular domain of human DLL4, amino acids 1-522, Fc- … (human, UniProt Q9NR61 27-522)); assay: Biacore; antibody purified by protein A; DLL4 form and format not stated
T1 construct: also called Human DLL4 Antigen; not shown: human Fc-tag or histidine-tag

[2] = biological target: T1, DLL4 antigen protein (recombinant …); assay: ELISA of conditioned medium, HEK 293 cells cotransfected with the murine 21M18 light chain
Method: The functionality of each candidate variant humanized heavy and light chain was tested by cotransfection into mammalian cells.

[3] = biological target: T1, DLL4 antigen protein (recombinant …); assay: ELISA of conditioned medium, HEK293 cells
Description: These heavy chains were cotransfected into HEK293 cells with L2, and conditioned media was again assayed.

[4] = biological target: T2, murine DLL4-Fc (murine, UniProt Q9JI71 27-525, limits assumed); assay: FACS-based assay with human or murine DLL4-Fc (FIG. 2B)
T2 construct: also called m-DLL4; not shown: Fc
Description: Binding was detected by fluorescently labeled anti-Fc and analyzed by FACS, with high fluorescence intensity indicative of binding between DLL4 and Notch1 expressing cells.

[5] = biological target: T3, human DLL4, full-length, on the surface of transfected cells (human, UniProt Q9NR61 27-685); assay: FACS on HEK 293 cells co-transfected with full-length DLL4 and GFP
T3 construct: whole, on cells; HEK 293 cells (transient with GFP, or stably transduced) and 3T3 cells overexpressing human DLL4; also called native cell-surface DLL4 protein; Delta-like ligand 4

[6] = biological target: T4, human DLL4 aa 1-96 fused to Fc (human, UniProt Q9NR61 27-96); assay: ELISA, Fc fusion captured by anti-human Fc
T4 construct: Printed as aa 1-96; not shown: Fc protein (human Fc by the capture and detection reagents)
Method: (§1) To identify antibodies that recognize specific regions of the DLL4 extracellular domain, epitope mapping was performed. Mammalian expression plasmid vectors comprising a CMV promoter upstream of polynucleotides that encode a nested series of deletion fragments of the extracellular domain of DLL4 fused to Fc protein were generated using standard recombinant DNA technology. Additional constructs that encoded fragments of DLL4 that were chimera of human and mouse DLL4 fused to Fc protein were also generated using standard recombinant DNA technology. A further series of DLL4-fc fusion proteins were designed that included specific amino acid substitutions. These recombinant fusion proteins were expressed in transiently transfected HEK 293 cells from which conditioned medium was collected twenty-four to forty-eight hours post-transfection for ELISA. The DLL4 fusion protein fragments were captured on plates coated with anti-human Fc antibodies. Anti-DLL4 antibodies were then allowed to interact with the bound DLL4 fragments and binding was measured by subsequent incubation with HRP conjugated anti-mouse antibody and detection of HRP activity (FIG. 3A). […] Additionally, anti-DLL4 mAbs were examined for binding to DLL4 fusion protein fragments by western blot analysis (FIG. 3B).

[7] = biological target: T5, human DLL4 aa 1-217 fused to Fc (human, UniProt Q9NR61 27-217); assay: ELISA, Fc fusion captured by anti-human Fc
T5 construct: predicted signal peptide 1-26 left out; also called hDLL4dom1-3; not shown: Fc protein
Method: as §1

[8] = biological target: T6, human DLL4 aa 1-251 fused to Fc (human, UniProt Q9NR61 27-251); assay: ELISA, Fc fusion captured by anti-human Fc
T6 construct: Predicted signal peptide 1-26 left out; also called aa 1-251 (printed as 1-251); not shown: Fc protein
Method: as §1

[9] = biological target: T7, human DLL4 aa 1-154 fused to Fc (human, UniProt Q9NR61 27-154); assay: ELISA, Fc fusion captured by anti-human Fc
T7 construct: predicted signal peptide 1-26 left out; also called h-DLL4 dom1-2; not shown: Fc protein
Method: as §1

[10] = biological target: T8, human DLL4 aa 1-283 fused to Fc (human, UniProt Q9NR61 27-283); assay: ELISA, Fc fusion captured by anti-human Fc
T8 construct: Predicted signal peptide 1-26 left out; not shown: Fc protein
Method: as §1

[11] = biological target: T9, human DLL4 aa 1-323 fused to Fc (human, UniProt Q9NR61 27-323); assay: ELISA, Fc fusion captured by anti-human Fc
T9 construct: Predicted signal peptide 1-26 left out; also called aa 1-323 (printed as 1-323); not shown: Fc protein
Method: as §1

T2 sequence (Q9JI71 27-525 limits assumed): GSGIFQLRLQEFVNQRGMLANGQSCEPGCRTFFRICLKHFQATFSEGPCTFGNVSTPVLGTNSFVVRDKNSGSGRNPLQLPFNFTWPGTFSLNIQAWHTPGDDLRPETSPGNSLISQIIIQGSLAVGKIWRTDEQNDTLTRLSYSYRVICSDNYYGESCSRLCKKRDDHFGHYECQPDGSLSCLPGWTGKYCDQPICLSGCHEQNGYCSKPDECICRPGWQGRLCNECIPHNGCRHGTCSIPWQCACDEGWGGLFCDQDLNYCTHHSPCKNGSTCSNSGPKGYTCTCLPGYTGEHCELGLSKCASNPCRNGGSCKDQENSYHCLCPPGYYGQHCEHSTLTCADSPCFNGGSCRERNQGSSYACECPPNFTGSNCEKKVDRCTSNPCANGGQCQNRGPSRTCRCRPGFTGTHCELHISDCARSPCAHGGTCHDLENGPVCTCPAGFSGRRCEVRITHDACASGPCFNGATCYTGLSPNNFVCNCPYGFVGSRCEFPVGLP

B1: humanized 21M18 variant H2L2 (antibody, V domains shown)
VH: QVQLVQSGAEVKKPGASVKISCKASGYSFTAYYIHWVKQAPGQGLEWIGYISCYNGATNYNQKFKGRVTFTTDTSTSTAYMELRSLRSDDTAVYYCARDYDYDVGMDYWGQGTLVTVSS
VL: DIVMTQSPDSLAVSLGERATISCRASESVDNYGISFMKWFQQKPGQPPKLLIYAASNQGSGVPDRFSGSGSGTDFTLTISSLQAEDVAVYYCQQSKEVPWTFGGGTKVEIK
notes: also called 21M18 H2L2; 21M18 H2 with 21M18 L2
For B1, the Kd [1] was about 0.33 nM.

B2: 21M18 H2 humanized heavy chain cotransfected with the murine 21M18 light chain (antibody, V domains shown)
VH: QVQLVQSGAEVKKPGASVKISCKASGYSFTAYYIHWVKQAPGQGLEWIGYISCYNGATNYNQKFKGRVTFTTDTSTSTAYMELRSLRSDDTAVYYCARDYDYDVGMDYWGQGTLVTVSS
VL: not shown
notes: Tested as conditioned medium of HEK 293 cells; heavy chain on human IgG2 constant region; also called 21M18 H2 (with murine 21M18 light chain)
B2: binds [2].

B3: humanized 21M18 H7L2 (antibody, human IgG2, V domains shown)
VH: QVQLVQSGAEVKKPGASVKISCKASGYSFTAYYIHWVKQAPGQGLEWIGYISSYNGATNYNQKFKGRVTFTTDTSTSTAYMELRSLRSDDTAVYYCARDYDYDVGMDYWGQGTLVTVSS
VL: DIVMTQSPDSLAVSLGERATISCRASESVDNYGISFMKWFQQKPGQPPKLLIYAASNQGSGVPDRFSGSGSGTDFTLTISSLQAEDVAVYYCQQSKEVPWTFGGGTKVEIK
notes: Variant of H2 with Kabat 52a Cys changed to Ser; also called H7L2 21M18; ATCC PTA-8425
B3: binds [3].

B4: humanized 21M18 H9L2 (antibody, human IgG2, V domains shown)
VH: QVQLVQSGAEVKKPGASVKISCKASGYSFTAYYIHWVKQAPGQGLEWIGYISVYNGATNYNQKFKGRVTFTTDTSTSTAYMELRSLRSDDTAVYYCARDYDYDVGMDYWGQGTLVTVSS
VL: DIVMTQSPDSLAVSLGERATISCRASESVDNYGISFMKWFQQKPGQPPKLLIYAASNQGSGVPDRFSGSGSGTDFTLTISSLQAEDVAVYYCQQSKEVPWTFGGGTKVEIK
notes: Variant of H2 with Kabat 52a Cys changed to Val; also called ATCC PTA-8427
B4: binds [3].

B5: murine monoclonal antibody 21M18 (antibody, V domains shown)
VH: EVQLQQSGPELVKTGASVKISCKASGYSFTAYYIHWVKQSHGKSLEWIGYISCYNGATNYNQKFKGKATFTVDTSSSTAFMQFNSLTSEDSAVYYCARDYDYDVGMDYWGQGTSVTVSS
VL: not shown
notes: Hybridoma-derived mouse antibody; both are alignment entries; also called m21M18; anti-DLL4 21M18
B5: no binding [4]; binds [5]; no binding [6]. B5: binds [7]; binds [8]; no binding [9]. B5: binds [10]; binds [11].
